We go through nine molecules from US20200317791A1.

Numbering of substitutions follows the chain as printed.

The labels stand for the following.
B1: CW6B130 (antibody, V domains shown)
VH: QLQLQESGPGLVKPSETLSLTCTVSGASISSINYYWGWIRQPPGKGLEWIGSFYYSGNTYYNPSLKSRVTISVDTSKNYFSLKLNSVTAADTAVYYCAREYYDSSGYYPFEPWGQGTLVTVSS
VL: SYVLTQPPSVSVAPGQTARITCGGDNIGSESVHWYQQKPGQAPVLVVYDDTDRPSGIPERFSGSKSGTTATLTISWVEAGDEADYYCQVWDSSSDHVVFGGGTKLTVL
B2: CW6B175 (antibody, V domains shown)
VH: EVQLVESGGGLVQPGGSLRLSCAASGFTFTNYWMTWVRQAPGKGLEWVANIKQSGSEKYYVDSVKGRFTISRDNAKNSLYLQMNSLRAEDTAVYYCARTLYEWELEPFDYWGQGTLVTVSS
VL: B1 VL with D25N, N26R, E30K, Y48F, T51S, K65N, T68I, W76R, S94N
B3: CW6B229 (antibody, V domains shown)
VH: QVQLQESGPGLVKPSETLSLTCTVSGNSIRSYYWSWIRQPAGKGLEWIGRIYISGNTNYNPSLKSRVTMSIDTSKNQFSLKLSSVTAADTAVFYCARLSGIDAFDIWGQGTMVTVSS
VL: DIQMTQSPSSLSASVGDRVTITCQASQDISNYLNWYQQKPGKAPKLLIYDASNLETGVPSRFSGSGSGTDFTFTISSLQPEDFATYYCQQYDNLPITFGQGTRLEIK
B4: CW6B230 (antibody, V domains shown)
VH: B3 VH with R30S, S31N, S54T, I71L, F93Y
VL: B3 VL with S10T, I21F, S30T, N31K, N93D
B5: CW6B233 (antibody, V domains shown)
VH: B3 VH with F93Y
VL: B3 VL with S30T
B6: CW6B238 (antibody, V domains shown)
VH: QVTLKESGPVLVKPTETLTLTCTVSGFSLNNARMGVSWIRQPPGKALEWLAHMFSSDEKFYRTSLKSRLTISKDTSKSQVVLTMTNMDPVDTATYYCARISLYSSGHDTFDLWGQGTMVTVSS
VL: AIQMTQSPSSLSASVGDRVTITCRASQDIRNTLGWYQQKPGKAPNLLIYAASSLQSGVPSRFSGSGSGTDFTLTISSLQPEDFATYYCLQDYDYPLTFGGGTKVEIK
B7: CW6B188 (antibody, V domains shown)
VH: B2 VH with S56N
VL: B1 VL with D25N, N26R, E30K, S31N, V32L, T51S, K65N, T68S, W76R, S94R
B8: CW6B228 (antibody, V domains shown)
VH: B3 VH with F93Y
VL: B3 VL with S30N, N53S, N93D
B9: CW6B237 (antibody, V domains shown)
VH: B6 VH with N30S, M53I, S56H, R62S, S64F, T83M, S101I, Y103S, T109A, L112I
VL: B6 VL with N31H, T32N, T72I, Y86F, Y87F, D93I

One test deals with T1, HLA-Cw6/ADAMTSL5-Abu on rhHLA-Cw6 expressing cells loaded with ADAM-Abu peptide (human), P10321.
Experiment: not given
For the molecule B1, the IC50 (read off the curve) worked out at 0.03 µg/mL. In the case of B2, the IC50 (read off the curve) is 0.2 µg/mL. Regarding B3, the IC50 (read off the curve) is 0.2 µg/mL. Same read-out and setting: in the case of B4 it was 0.2 µg/mL; in that of B5, 0.2 µg/mL; in that of B6, 0.2 µg/mL.

A further test has as its target T1, HLA-Cw6/ADAMTSL5-Abu on rhHLA-Cw6 …. As to the kind of experiment: cell-based or functional assay.
Take B1: the IL-2 % Inhibition (8.5 nM mAb), HLA-Cw6-00254 is 100% and the IL-2 % Inhibition (8.5 nM mAb), HLA-Cw6-00290 worked out at 100%. Take B2: the IL-2 % Inhibition (8.5 nM mAb), HLA-Cw6-00254 was 85% and the IL-2 % Inhibition (8.5 nM mAb), HLA-Cw6-00290 stood at 96%. B7 had an IL-2 % Inhibition (8.5 nM mAb), HLA-Cw6-00254 of 9%. For B8, the IL-2 % Inhibition (8.5 nM mAb), HLA-Cw6-00290 was 100%.

The molecule B3 displayed an IL-2 % Inhibition (8.5 nM mAb), HLA-Cw6-00290 of 86%. Regarding B4, the IL-2 % Inhibition (8.5 nM mAb), HLA-Cw6-00290 was 93%.

The molecule B5 displayed an IL-2 % Inhibition (8.5 nM mAb), HLA-Cw6-00290 of 91%. B6 came in with an IL-2 % Inhibition (8.5 nM mAb), HLA-Cw6-00290 of 86%. B9 displayed an IL-2 % Inhibition (8.5 nM mAb), HLA-Cw6-00290 of 59%.
